Assay results taken from US20160046707A1 (EISAI R AND D MANAGEMENT, published 2016).

Assays:
Test in all cases: ELISA, plate-bound chemokine (1 ug/ml), antibody 10 ug/ml, OD450
[1] = target: T1, recombinant human CCL27 (human, UniProt Q9Y4X3 25-112)
T1 construct: also called CTACK
T1 sequence (looked up): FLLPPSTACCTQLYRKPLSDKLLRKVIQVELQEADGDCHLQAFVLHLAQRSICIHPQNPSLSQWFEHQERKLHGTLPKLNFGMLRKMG
Experimental: (§1) The wells of a 96-well plate were coated with 1 μg/ml of the recombinant human chemokines in PBS (−). After overnight incubation at 4° C., the wells were blocked with 1× Block-Ace (Dainippon Sumitomo Pharma, UK-B80) for 1 hour at room temperature. After washing twice with 0.02% Tween 20/PBS (−), we added 50 μl of 10 μg/ml purified 36F7C10, chimeric 36F710, HC2/LK3, or HC2/LC3 in 0.02% Tween 20/PBS (−) to each well. The wells were incubated for 1 hour at room temperature and washed three times as described in Example 3. […] After washing five times, a TMBZ (3,3′,5,5′-tetramethylbenzidine) solution (1%, in N,N-Dimethylformamide) was added to the wells and incubated for 15-30 minutes. The reaction was stopped by adding an equal volume of a 2 M H₂SO₄ stopping solution, and the optical density was read at 450 nm by ARVO (PerkinElmer).

[2] = target: T2, recombinant human XCL1 (human, UniProt P47992 23-114, limits assumed)
T2 construct: also called Ltn
T2 sequence (looked up): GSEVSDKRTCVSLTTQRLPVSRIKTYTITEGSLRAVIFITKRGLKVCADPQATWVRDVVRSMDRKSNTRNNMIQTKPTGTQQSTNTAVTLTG
Experimental: as §1

[3] = target: T3, recombinant human CXCL10 (human, UniProt P02778 22-98)
T3 construct: also called IP-10
T3 sequence (looked up): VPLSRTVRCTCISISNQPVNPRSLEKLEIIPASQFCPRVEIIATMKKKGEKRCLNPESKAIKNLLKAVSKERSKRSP
Experimental: as §1

[4] = target: T4, recombinant human CX3CL1 (Chemokine Domain) (human, UniProt P78423 25-100)
T4 construct: domain: Chemokine Domain; also called FKN
T4 sequence (looked up): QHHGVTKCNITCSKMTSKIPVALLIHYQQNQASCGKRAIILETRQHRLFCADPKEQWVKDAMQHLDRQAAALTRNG
Experimental: as §1

[5] = target: T5, recombinant human CCL5 (human, UniProt P13501 24-91)
T5 construct: also called Rantes
T5 sequence (looked up): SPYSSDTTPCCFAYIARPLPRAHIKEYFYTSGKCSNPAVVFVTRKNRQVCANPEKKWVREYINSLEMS
Experimental: as §1

[6] = target: T6, recombinant human CCL11 (human, UniProt P51671 24-97)
T6 construct: also called Eotaxin
Experimental: as §1

[7] = target: T7, recombinant human CCL28 (human, UniProt Q9NRJ3 23-127, limits assumed)
T7 sequence (looked up): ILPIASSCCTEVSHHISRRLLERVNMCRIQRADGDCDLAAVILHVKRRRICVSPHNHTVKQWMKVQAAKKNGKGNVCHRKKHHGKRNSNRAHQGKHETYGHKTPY
Experimental: as §1

[8] = target: T8, recombinant human CCL22 (human, UniProt O00626 25-93)
T8 construct: also called MDC
T8 sequence (looked up): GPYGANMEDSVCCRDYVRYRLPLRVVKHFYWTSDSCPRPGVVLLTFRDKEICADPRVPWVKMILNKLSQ
Experimental: as §1

[9] = target: T9, recombinant human CCL25 (human, UniProt O15444 24-150)
T9 construct: also called TECK
T9 sequence (looked up): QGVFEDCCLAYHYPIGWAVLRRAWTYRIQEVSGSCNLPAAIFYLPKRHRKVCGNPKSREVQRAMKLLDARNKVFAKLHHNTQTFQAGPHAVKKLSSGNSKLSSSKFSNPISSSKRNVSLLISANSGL
Experimental: as §1

[10] = target: T10, recombinant human CCL21 (human, UniProt O00585 24-134)
T10 construct: also called 6Ckine/SLC
T10 sequence (looked up): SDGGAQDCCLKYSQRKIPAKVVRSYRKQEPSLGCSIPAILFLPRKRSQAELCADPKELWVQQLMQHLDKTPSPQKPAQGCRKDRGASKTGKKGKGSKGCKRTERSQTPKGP
Experimental: as §1

Measured: binding result

T6 sequence (P51671 24-97 limits assumed): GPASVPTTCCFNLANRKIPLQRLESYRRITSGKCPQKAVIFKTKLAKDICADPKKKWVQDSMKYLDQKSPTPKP

B1: humanized anti-human CCL20 antibody 36LK3/36HC2 (antibody, human IgG1, kappa, V domains shown)
VH: QVQLVQSGAEVKKPGASVKVSCKASGYTFTNYWMHWVRQAPGQGLEWMGVIDPSDSYTTYAQKFQGRVTMTVDTSTSTVYMELSSLRSEDTAVYYCARGNYGVDYAMDYWGQGTLVTVSS
VL: DIQMTQSPSSLSASVGDRVTITCGASENIYGALNWYQRKPGKAPKLLIYGATNLADGVPSRFSGSGSGRDYTLTISSLQPEDFATYYCQNVLITPYTFGQGTKLEIKR
notes: expressed in HEK293 cells; also called HC2/LK3; HC2LK3
no binding (tested: 10 ug/ml): [1] | [2] | [3] | [4] | [5] | [6] | [7] | [8] | [9] | [10]

B2: humanized anti-human CCL20 antibody 36LC3/36HC2 (antibody, human IgG1, kappa, V domains shown)
VH: QVQLVQSGAEVKKPGASVKVSCKASGYTFTNYWMHWVRQAPGQGLEWMGVIDPSDSYTTYAQKFQGRVTMTVDTSTSTVYMELSSLRSEDTAVYYCARGNYGVDYAMDYWGQGTLVTVSS
VL: DIQMTQSPSSLSASVGDRVTITCRASENIYGALNWYQQKPGKAPKLLIYGATNLADGVPSRFSGSGSGRQYSLTISSLQPEDFATYYCQNVLITPYTFGGGTKLEIKR
notes: expressed in HEK293 cells; also called HC2/LC3; HC2LC3
no binding (tested: 10 ug/ml): [1] | [2] | [3] | [4] | [5] | [6] | [7] | [8] | [9] | [10]

B3: mouse anti-human CCL20 monoclonal antibody 36F7C10 (antibody, V domains shown)
VH: QVQLQQPGAELVKPGASVKMSCKASGYTFTNYWMHWVKQRPGQGLEWIGVIDPSDSYTTYNQKFKGKATLTVDTSSSTAYMQLSSLTSEDSAVYYCTRGNYGVDYAMDYWGQGTSVTVSS
VL: DIQMTQSPASLSASVGETVTITCGASENIYGALNWYQRKQGKSPQLLIYGATNLADGMSSRFSGSGSGRQYSLKISSLHPDDVATYYCQNVLITPYTFGGGTKLEIK
notes: Mouse hybridoma antibody; also called MouseMAb; parental mouse clone 36F7C10
no binding (tested: 10 ug/ml): [1] | [2] | [3] | [4] | [5] | [6] | [7] | [8] | [9] | [10]

B4: chimeric 36F7C10 antibody (36F7C10-hFc) (antibody, V domains shown)
VH: QVQLQQPGAELVKPGASVKMSCKASGYTFTNYWMHWVKQRPGQGLEWIGVIDPSDSYTTYNQKFKGKATLTVDTSSSTAYMQLSSLTSEDSAVYYCTRGNYGVDYAMDYWGQGTSVTVSS
VL: DIQMTQSPASLSASVGETVTITCGASENIYGALNWYQRKQGKSPQLLIYGATNLADGMSSRFSGSGSGRQYSLKISSLHPDDVATYYCQNVLITPYTFGGGTKLEIK
notes: also called chimeric 36F710; Chimeric MAb
no binding (tested: 10 ug/ml): [1] | [2] | [3] | [4] | [5] | [6] | [7] | [8] | [9] | [10]
